Test results as given in patent US20260266833A1 (AXOIYA, published 2026).
Non-standard residues stand in square brackets, D forms with d. No end group written: not given here. *: point of attachment. Biotin = O=C1N[C@H]2[C@H](CS[C@H]2CCCCC(=O)*)N1; Arg(Me) = CNC(=N)NCCC[C@H](N)C(=O)O; Ahx = NCCCCCC(=O)O

T1: H3R17me1
T1 construct: also called H3R17me1 peptide
T1 peptide: {Biotin-Ahx}-KSTGGKAP[Arg(Me)]KQLATKAA

T2: H3R17
T2 construct: also called H3R17 peptide (non-modified)
T2 peptide: {Biotin-Ahx}-KSTGGKAPRKQLATKAA

T3: H3K14
T3 construct: also called H3K14 peptide (non-modified)
T3 peptide: {Biotin-Ahx}-TARKSTGGKAPRKQLAT

T4: H3K14Ac
T4 construct: also called H3K14Ac peptide
T4 peptide: {Biotin-Ahx}-TARKSTGGK(Ac)APRKQLAT

T5: H3K27me3 peptide (Kme3 (trimethyl-lysine) at the 10th residue (KQLATKAARKme3SAPATGGVK); N-terminus biotin + aminohexanoic acid linker, or FITC at the N-terminus for fluorescence polarization)
T5 construct: Synthetic peptide (GenScript); One entry is used for the biotinylated and the FITC-labelled form
T5 peptide: KQLATKAARKSAPATGGVK

B1: Cbx2.VD chromodomain-luciferase fusion (designed binder)
chain: MSYYHHHHHHGSDYKDDDDKSSGENLYFQGSGGSGEDVFAAECILSKRLRKGKLEYLVKWEGWSSKHNSWEPEENILDPRLLLAFQKKEHEKEVQNR
notes: not shown: engineered YY5 firefly luciferase from Photinus pyralis fused to the C-terminus
B2: Cbx8.VD chromodomain-luciferase fusion (designed binder)
chain: MSYYHHHHHHGSDYKDDDDKSSGENLYFQGSGGSGEDVFAAEALLKRRIRKGRMEYLVKWEGWSQKYSTWEPEENILDARLLAAFEEREREMELYGP
notes: as for B1
B3: phage-displayed Cbx7.V4 (designed binder)
chain: SAICDNVFAVESIRKKRVRKGKVEYLVKWEGWPQEYSTWEPEEHILDPRLVMAYEEKEERDRASGYRKRGPK
B4: phage-displayed Cbx7.V6 (designed binder)
chain: SAIFEDVFPVESIRKKRVRKGKVEYLVKWKGWPSEYSTWEPEEHILDPRLVMAYEEKEERDRASGYRKRGPK
B5: Cbx7 Q9D chromodomain (tags removed) (designed binder)
chain: SAIGEDVFAVESIRKKRVRKGKVEYLVKWKGWPPKYSTWEPEEHILDPRLVMAYEEKEERDRASGYRKRGPK
notes: FP: His6 and Flag tags removed with TEV protease
B6: Cbx7.VD chromodomain (tags removed) (designed binder)
chain: SAIGEDVFAVESIRKKRVRKGKVEYLVKWEGWPPKYSTWEPEEHILDPRLVMAYEEKEERDRASGYRKRGPK
notes: also called Cbx7 Q9D/K33E
B7: Cbx7 K33E chromodomain (tags removed) (designed binder)
chain: SAIGEQVFAVESIRKKRVRKGKVEYLVKWEGWPPKYSTWEPEEHILDPRLVMAYEEKEERDRASGYRKRGPK
notes: as for B5
B8: phage-displayed Cbx7.V3 (designed binder)
chain: SAICEYIFSVESIRKKRVRKGKVEYLVKWEGWPPEYMTWEPEEHILDPRLVMAYEEKEERDRASGYRKRGPK
B9: Cbx7.V1 back-mutant E38K, His6- and Flag-tagged (designed binder, not shown: small tags and cut ends)
chain: SAIGDDIFAVESIRKKRVRKGKVEYLVKWEGWPLKYSTWEPEEHILDPRLVMAYEEKEERDRASGYRKRGPK
B10: phage-displayed Cbx7.V5 (designed binder)
chain: SAIGHDVFPVESIRKKRVRKGKVEYLVKWRDWPEQYSTWEPEEHILDPRLVMAYEEKEERDRASGYRKRGPK
B11: Cbx7.V1 back-mutant D9Q, His6- and Flag-tagged (designed binder, not shown: small tags and cut ends)
chain: SAIGDQIFAVESIRKKRVRKGKVEYLVKWEGWPLEYSTWEPEEHILDPRLVMAYEEKEERDRASGYRKRGPK
B12: Cbx7.V1 back-mutant D8E, His6- and Flag-tagged (designed binder, not shown: small tags and cut ends)
chain: SAIGEDIFAVESIRKKRVRKGKVEYLVKWEGWPLEYSTWEPEEHILDPRLVMAYEEKEERDRASGYRKRGPK
B13: phage-displayed Cbx7.V2 (designed binder)
chain: SAICDNVYPVESIRKKRVRKGKVEYLVKWKGWPLEYSTWEPEEHILDPRLVMAYEEKEERDRASGYRKRGPK
B14: phage-displayed Cbx7.V1 (designed binder)
chain: SAIGDDIFAVESIRKKRVRKGKVEYLVKWEGWPLEYSTWEPEEHILDPRLVMAYEEKEERDRASGYRKRGPK
B15: Cbx7.V1 back-mutant I10V, His6- and Flag-tagged (designed binder, not shown: small tags and cut ends)
chain: SAIGDDVFAVESIRKKRVRKGKVEYLVKWEGWPLEYSTWEPEEHILDPRLVMAYEEKEERDRASGYRKRGPK
B16: Cbx7.V1 back-mutant L37P, His6- and Flag-tagged (designed binder, not shown: small tags and cut ends)
chain: SAIGDDIFAVESIRKKRVRKGKVEYLVKWEGWPPEYSTWEPEEHILDPRLVMAYEEKEERDRASGYRKRGPK
B17: Cbx7.V1 chromodomain, His6- and Flag-tagged (designed binder, not shown: small tags and cut ends)
chain: SAIGDDIFAVESIRKKRVRKGKVEYLVKWEGWPLEYSTWEPEEHILDPRLVMAYEEKEERDRASGYRKRGPK
notes: BLI form; tags are said to be removed only for FP and ITC
B18: Cbx7.wt chromodomain-luciferase fusion (other)
chain: MSYYHHHHHHGSDYKDDDDKSSGENLYFQGSGGSSAIGEQVFAVESIRKKRVRKGKVEYLVKWKGWPPKYSTWEPEEHILDPRLVMAYEEKEERDRASGYRKRGPK
notes: as for B1
B19: Cbx7.VD chromodomain-luciferase fusion (designed binder)
chain: MSYYHHHHHHGSDYKDDDDKSSGENLYFQGSGGSSAIGEDVFAVESIRKKRVRKGKVEYLVKWEGWPPKYSTWEPEEHILDPRLVMAYEEKEERDRASGYRKRGPK
notes: as for B1
B20: Cbx2.VD chromodomain (tags removed) (designed binder)
chain: GEDVFAAECILSKRLRKGKLEYLVKWEGWSSKHNSWEPEENILDPRLLLAFQKKEHEKEVQNR

Columns and labels:
H3R17me1 = target: T1, H3R17me1; assay: luciferase-fusion assay on immobilized peptide
Procedure: (§1) For luciferase-based assays, 384-well white plates (PerkinElmer) were coated for 16 h at 4° C. with 4 μg/ml streptavidin (New England Biolabs, N7021S) in TBS pH 8.5 (50 mM Tris-HCl pH 8.5, 150 mM NaCl). Each well was blocked with 60 μl/well of TBS pH 8.5 containing 0.5% BSA (TB buffer) and incubated at 25° C. for 1 h. Plates were washed four times with 90 μl/well of PBS pH 7.4, 0.05% Tween-20 (PT buffer) and incubated with 25 μl/well of biotinylated histone peptides at 5 μg/ml in TB buffer pH 8.5 for 30 min at 25° C. Plates were washed and incubated with Cbx chromodomain-luciferase fusions diluted to 0.1 nM for Cbx. VD or 100 nM for Cbx.wt in TB buffer, 0.05% Tween-20, 1 mM DTT, 5% glycerol (TBT buffer). Plates were incubated for 1 h at 25° C. with gentle shaking, washed six times and luminescence intensity was measured with a Biotek Synergy 5 plate reader (Biotek) using the ONE-Glo™ EX luciferase assay system reagent (Promega). Following background subtraction of the luminescence signal derived from wells coated with streptavidin, the luminescence intensity was normalized to wells with immobilized H3K9me3 peptide.
(§2) To enhance detection sensitivity, each chromodomain was expressed as a fusion to the N-terminus of an engineered firefly luciferase and binding was measured by luminescence intensity.

H4K20 peptide [1] = target: T6, H4K20 peptide (N-terminus biotin + aminohexanoic acid linker); assay: luciferase-fusion assay on immobilized peptide
Procedure: as §1, §2

H4K20me3 [2] = target: T7, H4K20me3 (Kme3 at peptide residue 8 (histone H4 K20); N-terminal biotin and aminohexanoic acid linker); assay: luciferase-fusion assay on immobilized peptide
T7 construct: also called H4K20Me3 peptide
Procedure: as §1, §2

H3R17 = target: T2, H3R17; assay: luciferase-fusion assay on immobilized peptide
Procedure: as §1, §2

H3K14 [3] = target: T3, H3K14; assay: luciferase-fusion assay on immobilized peptide
Procedure: as §1, §2

H3K14Ac = target: T4, H3K14Ac; assay: phage ELISA, specificity heatmap
Procedure: (§3) Phage ELISA experiments were performed by coating 384-well MAXISORP plates (Thermo Fisher Scientific) with 25 μl/well of 2 μg/ml streptavidin (New England Biolabs, N7021S) in PBS pH 7.4, and incubating them at 4° C. for 16 h. Each well was blocked with 60 μl/well of PBS pH 7.4 containing 0.5% BSA (PB buffer) and incubated at 25° C. for 1 h. Plates were washed four times with 90 μl/well of PBS pH 7.4 containing 0.05% Tween-20 (PT buffer) and incubated with 25 μl/well of biotinylated histone peptides at 2 μg/ml in PBS pH 7.4 for 30 min at 25° C. Plates were incubated with phage stocks previously diluted three-fold in PB buffer containing 0.05% Tween-20 (PBT buffer) at 25° C. for 1 h with gentle agitation. Plates were washed and bound phage was detected using 25 μl/well of an anti-M13-HRP-conjugated antibody (1:3,000 dilution in PT buffer; SinoBiological, 11973-MM05T-H). Following incubation at 25° C. for 30 min with gentle shaking, plates were washed, and binding was assessed by adding 25 μl/well of the 3,3′,5,5′-tetramethylbenzidine (TMB) (Thermo Fisher) chromogenic substrate. Plates were incubated with TMB at 25° C. with gentle shaking for 5-10 min, and the colorimetric reaction was stopped by addition of 25 μl/well of a IM H3PO4 solution. Plates were read spectrophotometrically at 450 nm using a PowerWave XS microplate reader (BioTek).

H4K20 peptide [4] = target: T6, H4K20 peptide; assay: phage ELISA, specificity heatmap
Procedure: as §3

H4K20me3 [5] = target: T7, H4K20me3; assay: phage ELISA, specificity heatmap
Procedure: as §3

H3K14 [6] = target: T3, H3K14; assay: phage ELISA, specificity heatmap
Procedure: as §3

H3K27me3 peptide [7] = target: T5, H3K27me3 peptide; assay: fluorescence polarization, FITC-peptide 0.5 nM
Procedure: (§4) Fluorescence polarization (FP) assays were performed in a 20 μl volume at a constant histone peptide concentration of 0.5 nM. Binding measurements were performed in FP buffer (25 mM HEPES pH 7.5, 150 mM NaCl, 1 mM DTT, 0.01% TritonX-100) by mixing in a 384-well black plate (Corning) 0.5 nM FITC-labeled histone peptides with serial dilutions of wild-type Cbx chromodomains ranging from 200-0.2 μM. For affinity determination of Cbx7.V1 and all Cbx. VDs, chromodomains were serially diluted from 50 μM to 50 nM. Samples were incubated for 30 min at 25° C. prior to data acquisition. […] Dissociation constants were determined using Prismv.9.3 (GraphPad Software Inc) with a one-site total binding model.

H3K27me3 peptide [8] = target: T5, H3K27me3 peptide; assay: fluorescence polarization, FITC-peptide 0.5 nM
Procedure: as §4
FP assays was used to measure the affinities of each wild-type Cbx chromodomain (Cbx.wt) and its Cbx. VD version for the H3K9me3 and H3K27me3 peptides (Table 13).

H3K27me3 peptide [9] = target: T5, H3K27me3 peptide; assay: BLI, biotinylated peptide on streptavidin tips, steady state
Procedure: BLI experiments were performed on an Octet HTX system (ForteBio) using biosensor tips coated with streptavidin to immobilize biotinylated H3K9me3 and H3K27me3 peptides. Binding analysis was performed by analyzing the association of biosensor-immobilized methylated peptides to Cbx7.V1 variants in solution at 5 or 1 μM. Binding assays were performed at 25° C. in BLI reaction buffer (25 mM HEPES pH 7.0, 150 mM NaCl, 1 mg/ml BSA, 0.01% Tween-20). Dissociation constants (KD) were obtained by fitting the response wavelength shifts in the steady-state regions with the Langmuir binding model.

H4K20 peptide [10] = target: T6, H4K20 peptide; assay: luciferase-fusion assay on immobilized peptide, fusion at 100 nM, normalized to H3K9me3
Procedure: as §1, §2

H4K20me3 [11] = target: T7, H4K20me3; assay: as above
Procedure: as §1, §2

H4K20 peptide [12] = target: T6, H4K20 peptide; assay: luciferase-fusion assay on immobilized peptide, fusion at 0.1 nM, normalized to H3K9me3
Procedure: as §1, §2

H4K20me3 [13] = target: T7, H4K20me3; assay: as above
Procedure: as §1, §2

| Binder | binding result (H3K14Ac) | binding result (H4K20 peptide [4]) | binding result (H4K20me3 [5]) | binding result (H3K14 [6]) | Kd (H3K27me3 peptide [9]) [µM] | other results |
| --- | --- | --- | --- | --- | --- | --- |
| B1 |  |  |  |  |  | binding result (H3R17me1): no binding (tested: 0.1 nM); binding result (H4K20 peptide [1]): no binding (tested: 0.1 nM); binding result (H4K20me3 [2]): no binding (tested: 0.1 nM); binding result (H3R17): no binding (tested: 0.1 nM); binding result (H3K14 [3]): no binding (tested: 0.1 nM) |
| B2 |  |  |  |  |  | binding result (H4K20 peptide [1]): no binding (tested: 0.1 nM); binding result (H4K20me3 [2]): no binding (tested: 0.1 nM); binding result (H3R17): no binding (tested: 0.1 nM); binding result (H3K14 [3]): no binding (tested: 0.1 nM) |
| B3 | no binding | no binding | no binding | no binding |  |  |
| B4 | no binding | no binding | no binding | no binding |  |  |
| B5 |  |  |  |  |  | Kd (H3K27me3 peptide [7]): 100 µM |
| B6 |  |  |  |  |  | Kd (H3K27me3 peptide [8]): 5 µM; Kd (H3K27me3 peptide [7]): 5 µM |
| B7 |  |  |  |  |  | Kd (H3K27me3 peptide [7]): 20 µM |
| B8 | no binding | no binding | no binding | no binding |  |  |
| B9 |  |  |  |  | 1.5 |  |
| B10 | no binding | no binding | no binding | no binding |  |  |
| B11 |  |  |  |  | 2 |  |
| B12 |  |  |  |  | 2 |  |
| B13 | no binding | no binding | no binding | no binding |  |  |
| B14 | no binding | no binding | no binding | no binding |  |  |
| B15 |  |  |  |  | 2 |  |
| B16 |  |  |  |  | 2.5 |  |
| B17 |  |  |  |  | 2 |  |
| B18 |  |  |  |  |  | binding result (H4K20 peptide [10]): binds; binding result (H4K20me3 [11]): binds |
| B19 |  |  |  |  |  | binding result (H4K20 peptide [12]): binds; binding result (H4K20me3 [13]): binds; binding result (H3R17me1): no binding (tested: 0.1 nM); binding result (H3R17): no binding (tested: 0.1 nM); binding result (H3K14 [3]): no binding (tested: 0.1 nM) |
| B20 |  |  |  |  |  | Kd (H3K27me3 peptide [8]): 3 µM |
